Assay results published in US6495144B2, “EBNA2 peptides and methods of using same” (Johns Hopkins University School of Medicine, priority 1996, dated 2002).
“Also recorded” adds a separate entry of the source. Marks after values point to notes of the source that are not given here.

Assays:
[1] = tested on: EBV latency C promoter (Cp-CAT); assay: Cp-CAT transactivation by EBNA2 effector DNAs cotransfected in DG75 cells; assay type: cell-based, Epstein-Barr virus; conditions: for % Transactivation: relative EBNA2 transactivation of the Cp, at DNA concentrations giving 50% acetylation for wild-type EBNA2, mutations in full-length EBNA2; for transactivation of Cp-CAT, dose-response, in words: 0-2.0 μg effector DNA, 2 μg target
Experimental: FIGS. 4A-4B are graphs that depict μg effector versus % acetylation for transactivation in DG75 cells of a Cp-CAT construction (Ling et al. (1993b), supra) cotransfected at 2 μg with increasing amounts (i.e., 0, 0.25, 0.5, 1.0 and 2.0 μg) of the indicated EBNA2 effector DNAs. Immunoblot analysis confirmed the equivalent expression of the different EBNA2 effector constructions in transfected cells.
FIGS. 7A-7B are graphs that depict μg effector versus fold-induction for cotransfection assays comparing the ability of type A EBNA2 and type B EBNA2 to transactivate expression from Cp-CAT (FIG. 7A) and CD23p-CAT (FIG. 7B) (Ling et al. (1994), supra) in DG75 cells. The target plasmids were transfected at a constant amount (2 μg) and the effector DNAs at increasing amounts of 0, 0.25, 0.5, 1.0 and 2.0 μg.
In order to correlate the effect of the mutations on CBF1 interaction measured in the in vitro binding assays with the effects on CBF1 interaction in vivo in cultured cells, the point mutations and the glycine-arginine deletion were incorporated into full-length EBNA2 proteins which were used to study EBNA2 targeting in transactivation assays. The mutant proteins were synthesized in equal abundance in transfected cells as assessed by Western blot analysis. FIGS. 4A and 4B compare the ability of wild-type and mutant EBNA2 proteins to transactivate expression from the EBV latency C promoter in a dose-response assay (Ling et al. (1993b), supra).

CBF1/RBPJk = biological target: T1, CBF1/RBPJk (Homo sapiens, UniProt Q06330); assay: EMSA of EBNA2/CBF1 complex formation with in vitro translated EBNA2 peptides; assay type: binding; conditions: for behaviour in EMSA (competition for CBF1 complex, formation of supershifted EBNA2/CBF1 complex): equimolar in vitro translated peptides, Cp CBF1 binding site probe
T1 construct: EMSA using CBF1 purified by heparin-agarose chromatography; endogenous in cells; host or cells: CA46 cells (fractionated extract, heparin-agarose)
T1 sequence (Q06330 whole entry): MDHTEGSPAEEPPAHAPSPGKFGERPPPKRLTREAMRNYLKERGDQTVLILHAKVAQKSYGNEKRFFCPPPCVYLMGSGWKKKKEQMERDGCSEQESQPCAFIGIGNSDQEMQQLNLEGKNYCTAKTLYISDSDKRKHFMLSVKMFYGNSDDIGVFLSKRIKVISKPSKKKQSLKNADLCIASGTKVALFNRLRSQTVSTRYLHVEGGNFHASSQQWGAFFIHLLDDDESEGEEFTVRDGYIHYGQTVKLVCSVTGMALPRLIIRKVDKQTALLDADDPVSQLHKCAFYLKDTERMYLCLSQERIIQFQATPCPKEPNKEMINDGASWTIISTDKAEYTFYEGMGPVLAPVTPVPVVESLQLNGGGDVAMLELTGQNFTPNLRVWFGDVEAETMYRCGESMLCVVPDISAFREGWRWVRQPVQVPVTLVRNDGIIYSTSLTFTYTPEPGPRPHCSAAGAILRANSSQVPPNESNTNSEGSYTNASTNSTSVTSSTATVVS
Text: FIG. 3 is an autoradiogram that depicts the effect of mutations on the ability of an EBNA2 (i.e., E2) peptide comprising amino acids 252-425 to interact with CBF1/RBPJk: probe (lane 1); E2 only (lane 2); lysate (lane 3); CBF1 (lane 4); CBF1 and lysate (lane 5); CBF1 and E2 252-425 (lane 6); CBF1 and del376-425 (lane 7); CBF1 and del343-425 (lane 8); CBF1 and del252-366 (lane 9); CBF1 and del252-309, del398-425 (lane 10); CBF1 and del344-357 (lane 11); CBF1 and II307SR (CR5) (lane 12); CBF1 and GP320SR (CR6) (lane 13); CBF1 and WW323SR (CR6) (lane 14); CBF1 and PI326SR (CR6) (lane 15); CBF1 and SR360VD (PKC) (lane 16); and CBF1 and LGL389SRT (CR7) (lane 17). Results of an EMSA using CBF1 purified by heparin-agarose chromatography and a 30-base pair oligonucleotide probe containing the Cp CBF1 binding site (Ling et al. (1993a), supra) are shown. The wild-type EBNA2 and mutant EBNA2 peptides spanning amino acids 252-425 were in vitro transcribed and translated, and equimolar amounts were added to the binding reactions. Addition of unprogrammed reticulocyte lysate to the CBF1 extract (+lysate) produced a minor bandshift that migrated in the range of the E2/CBF1 complex. The EBNA2/CBF1 complexes (i.e., E2/CBF1 complexes) vary in mobility depending on the size of the added EBNA2 peptide.
FIG. 6 is an EMSA that compares the ability of type A EBNA2 (i.e., EBNA2 comprising amino acids 252-425) and the homologous domains of type B (i.e., EBNA2 comprising amino acids 216-392) and HVP EBNA2 (i.e., HBP EBNA2 comprising amino acids 288-470) to form complexes with CBF1/RBPJk. The EBNA2 peptides and CBF1/RPBPJk were prepared by in vitro transcription and translation. EBNA2 peptides were added with two-fold increases in amount (black triangles) to a binding mixture containing a constant amount of CBF1/RBPJk and a 30-base pair Cp CBF1 binding site probe. Symbols: P, probe only; R, reticulolysate.
The relative positions of the various functional domains the EBNA2 protein are depicted in FIG. 1. To define the amino acids required for interaction with CBF1, various synthetic peptides comprising the promoter targeting domain (i.e., the CBF1/RBPJk interaction domain) were constructed. The truncated and mutated peptides diagrammed in FIG. 2 were synthesized by in vitro transcription-translation, and were tested for their ability to form complexes with CBF1 that could be detected in an electrophoretic mobility shift assay (EMSA) (Ling et al., J. Virol., 69, 1944-1950 (1995)). The expressed peptides were tested using a fractionated extract of EBV negative lymphoblastoid CA46 cells (American Type Culture Collection, Rockville, Md.). The peptides were labeled with ^35S-methionine, and their integrity was confirmed by sodium dodecylsulfate sulfate-polyacrylamide gel electrophoresis (SDS-PAGE). To ensure that equal amounts of the EBNA2 peptides were added to each binding reaction mixture, the SDS-PAGE bands were quantitated using a Molecular Dynamics Phosphorimager, and the volume of the samples was adjusted on the basis of peptide size and the number of methionine residues.

[2] = linear range of the assay, 0.5 μg effector DNA

B1: del344-357: EBNA2 with glycine-arginine repeats removed by deletion of amino acids 344-357 (protein)
chain: MPTFYLALHGGQTYHLIVDTDSLGNPSLSVIPSNPYQEQLSDTPLIPLTIFVGENTGVPPPLPPPPPPPPPPPPPPPPPPPPPPPPPPSPPPPPPPPPPPQRRDAWTQEPSPLDRDPLGYDVGHGPLASAMRMLWMANYIVRQSRGDRGLILPQGPQTAPQARLVQPHVPPLRPTAPTILSPLSQPRLTPPQPLMMPPRPTPPTPLPPATLTVPPRPTRPTTLPPTPLLTVLQRPTELQPTPSPPRMHLPVLHVPDQSMHPLTHQSTPNDPDSPEPRSPTVFYNIPPMPLPPSQLPPPAAPAQPPPGVINDQQLHHLPSGPPWWPPICDPPQPSKTQGQSRGQGKSRDKQRKPGGPWRPEPNTSSPSMPELSPVLGLHQGQGAGDSPTPGPSNAAPVCRNSHTATPNVSPIHEPESHNSPEAPILFPDDWYPPSIDPADLDESWDYIFETTESPSSDEDYVEGPSKRPRPSIQ
With B1 the “transactivation of Cp-CAT relative to wild-type EBNA2” value [1, 2] was 150%, the “% Transactivation” value [1] was 150% and the “% Complex formation” value (CBF1/RBPJk; EBNA2/CBF1 supershifted complex relative to wild-type EBNA2(252-425), phosphoimager, reticulocyte lysate background subtracted) was 100%. The “behaviour in EMSA (competition for CBF1 complex, formation of supershifted EBNA2/CBF1 complex)” value (CBF1/RBPJk) was “did not negatively affect EBNA2/CBF1 complex formation” and the “behaviour in EMSA (competition for CBF1 complex, formation of supershifted EBNA2/CBF1 complex)” value (CBF1/RBPJk; listed as glycine-arginine deletion) was “did not negatively affect complex formation in the EMSA”.

B2: WW323SR (CR6): EBNA2 with tryptophans 323 and 324 in CR6 changed to SR (protein)
chain: MPTFYLALHGGQTYHLIVDTDSLGNPSLSVIPSNPYQEQLSDTPLIPLTIFVGENTGVPPPLPPPPPPPPPPPPPPPPPPPPPPPPPPSPPPPPPPPPPPQRRDAWTQEPSPLDRDPLGYDVGHGPLASAMRMLWMANYIVRQSRGDRGLILPQGPQTAPQARLVQPHVPPLRPTAPTILSPLSQPRLTPPQPLMMPPRPTPPTPLPPATLTVPPRPTRPTTLPPTPLLTVLQRPTELQPTPSPPRMHLPVLHVPDQSMHPLTHQSTPNDPDSPEPRSPTVFYNIPPMPLPPSQLPPPAAPAQPPPGVINDQQLHHLPSGPPSRPPICDPPQPSKTQGQSRGQSRGRGRGRGRGRGKGKSRDKQRKPGGPWRPEPNTSSPSMPELSPVLGLHQGQGAGDSPTPGPSNAAPVCRNSHTATPNVSPIHEPESHNSPEAPILFPDDWYPPSIDPADLDESWDYIFETTESPSSDEDYVEGPSKRPRPSIQ
B2 was tested, and the “transactivation of Cp-CAT, dose-response, in words” value [1] was “inability of this mutant to transactivate the Cp even at high doses of effector”, the “% Transactivation” value [1] was 0% and the “behaviour in EMSA (competition for CBF1 complex, formation of supershifted EBNA2/CBF1 complex)” value (CBF1/RBPJk) was “did not compete for the CBF1 complex and produced little or no EBNA2/CBF1 supershifted complex”.

B3: GP320SR (CR6): EBNA2 with two non-hydrophobic residues GP at 320 in CR6 changed to SR (protein)
chain: MPTFYLALHGGQTYHLIVDTDSLGNPSLSVIPSNPYQEQLSDTPLIPLTIFVGENTGVPPPLPPPPPPPPPPPPPPPPPPPPPPPPPPSPPPPPPPPPPPQRRDAWTQEPSPLDRDPLGYDVGHGPLASAMRMLWMANYIVRQSRGDRGLILPQGPQTAPQARLVQPHVPPLRPTAPTILSPLSQPRLTPPQPLMMPPRPTPPTPLPPATLTVPPRPTRPTTLPPTPLLTVLQRPTELQPTPSPPRMHLPVLHVPDQSMHPLTHQSTPNDPDSPEPRSPTVFYNIPPMPLPPSQLPPPAAPAQPPPGVINDQQLHHLPSSRPWWPPICDPPQPSKTQGQSRGQSRGRGRGRGRGRGKGKSRDKQRKPGGPWRPEPNTSSPSMPELSPVLGLHQGQGAGDSPTPGPSNAAPVCRNSHTATPNVSPIHEPESHNSPEAPILFPDDWYPPSIDPADLDESWDYIFETTESPSSDEDYVEGPSKRPRPSIQ
B3 was tested, and the “transactivation of Cp-CAT, dose-response, in words” value [1] was “mirrored that of wild-type EBNA2”, the “% Transactivation” value [1] was 120% and the “behaviour in EMSA (competition for CBF1 complex, formation of supershifted EBNA2/CBF1 complex)” value (CBF1/RBPJk) was “had no effect on the behavior of the peptide in the EMSA”.

B4: PI326SR (CR6): EBNA2 with PI at 326 in CR6 changed to SR (protein)
chain: MPTFYLALHGGQTYHLIVDTDSLGNPSLSVIPSNPYQEQLSDTPLIPLTIFVGENTGVPPPLPPPPPPPPPPPPPPPPPPPPPPPPPPSPPPPPPPPPPPQRRDAWTQEPSPLDRDPLGYDVGHGPLASAMRMLWMANYIVRQSRGDRGLILPQGPQTAPQARLVQPHVPPLRPTAPTILSPLSQPRLTPPQPLMMPPRPTPPTPLPPATLTVPPRPTRPTTLPPTPLLTVLQRPTELQPTPSPPRMHLPVLHVPDQSMHPLTHQSTPNDPDSPEPRSPTVFYNIPPMPLPPSQLPPPAAPAQPPPGVINDQQLHHLPSGPPWWPSRCDPPQPSKTQGQSRGQSRGRGRGRGRGRGKGKSRDKQRKPGGPWRPEPNTSSPSMPELSPVLGLHQGQGAGDSPTPGPSNAAPVCRNSHTATPNVSPIHEPESHNSPEAPILFPDDWYPPSIDPADLDESWDYIFETTESPSSDEDYVEGPSKRPRPSIQ
B4 was tested, and the “transactivation of Cp-CAT relative to wild-type EBNA2” value ([1]; highest levels of effector DNA) was 20%, the “transactivation of Cp-CAT relative to wild-type EBNA2” value [1, 2] was 2% and the “% Transactivation” value [1] was 2^c %. The “behaviour in EMSA (competition for CBF1 complex, formation of supershifted EBNA2/CBF1 complex)” value (CBF1/RBPJk) was “did not compete for the CBF1 complex and produced little or no EBNA2/CBF1 supershifted complex; also recorded: severely impaired the ability of the peptide to form a complex with CBF1 in an EMSA”.

B5: type B EBNA2 comprising amino acids 216-392: homologous CBF1 interaction domain of human type B EBNA2, in vitro translated (protein)
chain: GHQLSLPPHPPPHQSTPHCSSDSTGLPPPPTSYSIPSMTLSPEPLPPPAAPAHPLPGVIYDQQALPPTPGPPWWPPVRDPTPTTQTPPTNTKQGPDQGQGRGRWRGRGRSKGRGRMHKLPEPRRPGPDTSSPSMPQLSPVVSLHQGQGPENSPTPGPSTAGPVCRVTPSATPDISPI
In the case of B5, the “behaviour in EMSA (competition for CBF1 complex, formation of supershifted EBNA2/CBF1 complex)” value (CBF1/RBPJk) is reported as “bound CBF1 comparably to type A EBNA2” and the “amount of peptide required to convert all the CBF1 to the supershifted complex, versus type A EBNA2” value (CBF1/RBPJk; in vitro translated CBF1/RBPJk, two-fold increases of peptide) is reported as “two-fold more”.
